Biological target: bFGF receptor molecules present on the surface of the B16 cells (mouse)
Assay: cell-based or functional assay

Substance | cytotoxic effect on B16 cells (MTT viability), IC50 [ng/mL] | improvement of the IC50 value on B16 cells against bFGF-MLA [fold] | cytotoxic activity on B16 cells (WST-1 viability), IC50 [ng/mL] | increase of toxicity against rMLA alone on B16 cells [fold]
bFGF-MLA/rMLB associated fusion protein (bFGF-MLA coupled to rMLB under co-folding) (from UniProt P09038 134-288) | 10 | 5 | – | –
bFGF-MLA fusion protein (basic fibroblast growth factor fused to the N terminus of rMLA) (from UniProt P09038 134-288) | – | – | 48 | > 100

Reference: patent US20020045208A1
